Data published in patent publication US9446226B2, “Drug-delivering composite structures” (Ramot at Tel-Aviv University Ltd., priority 2005, dated 2016).

Legend:
[1] = In vitro paclitaxel release from composite fibrous structures; assay type: physicochemical; settings: PBS 37° C.
Method: Cumulative release of paclitaxel from samples of composite fibrous structures was monitored and followed over a time period of four months. Samples of composite structures were immersed in PBS at 37° C. for 112 days. The medium was entirely removed periodically and assayed for drug release, and fresh medium was introduced. The paclitaxel content of each medium sample was determined using Agilent 1100 High Performance Liquid Chromatography (HPLC).

[2] = In-vitro HRP release from composite fibrous structures; assay type: physicochemical
Method: Various samples of HRP-containing composite fibrous structures were used to determine the release kinetics of HRP over a time period of 90 days. The HRP release studies were conducted in closed 1 ml glass vessels in which the HRP-containing composite fibrous structures were immersed in 1 ml sterile double-distilled water containing sodium azide as preservative (0.05% w/w) at 37° C. The entire aqueous medium was replaced periodically by fresh medium and HRP content in the removed medium was determined by the micro BCA assay method, by measuring absorbance at 595 nm.
Cumulative HRP release profiles were determined relative to the initial amount of HRP in each of the tested structures, i.e., the amount of HRP released during the incubation period and the residual HPR remaining in the structures. All experiments were performed in triplicate.
Residual protein recovery front composite fibrous structures: Residual protein recovery from spent composite fibrous structure samples used in the abovementioned in-vitro release experiments was conducted according to a previously described method [Jeffery H et al., Pharm. Res., 1993, 10(3), pp 362-368].
Briefly, composite fibrous structures were extracted in 1 ml sodium dodecyl sulfate (SDS)/NaOH 5%/0.1 M solution for 48 hours at 37° C. Following extraction, the HRP concentration was estimated using a micro BCA assay method as described hereinabove. Based on these assays, the exact amount of the HRP loaded in each structure was determined and served for calculating the percentages cited in the assays above.

[3] = as obtained from Aldrich; cited from earlier work

Compound: CC(=O)O[C@H]1C(=O)[C@@]2(C)[C@H]([C@H](OC(=O)c3ccccc3)[C@]3(O)C[C@H](OC(=O)[C@H](O)[C@@H](NC(=O)c4ccccc4)c4ccccc4)C(C)=C1C3(C)C)[C@]1(OC(C)=O)CO[C@@H]1C[C@@H]2O [paclitaxel, Paclitaxel]
- paclitaxel released during the first 24 hours ([1]; emulsions containing 2.9% w/w paclitaxel): 3%
- paclitaxel released during the first 24 hours ([1]; fibers coated with emulsion containing 7.14% w/w paclitaxel): 7%
- burst effect of paclitaxel release during the first days ([1]; standard reference emulsion (17.5% w/v polymer, 1.43% w/w paclitaxel, O:A 2:1), nylon core): less than 3%

Compound: Horseradish peroxidase [HRP]
- initial burst of HRP release ([2]; 1% w/w HRP load, O:A 4:1, water with sodium azide, 37° C.): 20%
- initial burst of HRP release (mean) ([2]; 5% w/w HRP load, O:A 4:1, water with sodium azide, 37° C.): 70%
- active enzyme released during the 90 day experiment ([2]; 5% w/w HRP load, O:A 4:1, 8:1, 16:1, coat-polymer 13%, 15%, 19% w/v, 90 days): at least 90%
- burst effect of HRP release ([2]; O:A 4:1 formulations, 5% w/w HRP load): 70-80%
- burst effect of HRP release ([2]; O:A 8:1, 5% w/w HRP, highest coat-polymer content (19% w/v)): 26%
- burst effect of HRP release ([2]; O:A 8:1, 5% w/w HRP, lowest coat-polymer content (13% w/v)): 66%
- burst effect of HRP release ([2]; O:A 16:1, 5% w/w HRP, highest coat-polymer content (19% w/v)): 10%
- burst effect of HRP release ([2]; O:A 16:1, 5% w/w HRP, lowest coat-polymer content (13% w/v)): 20%
- burst effect of HRP release ([2]; O:A 16:1 formulations, 5% w/w HRP load): 10-20%
- initial enzymatic activity [3]: 500 U/mg
